We go through one molecule from patent US20080286803A1 (NEDERLANDSE ORGANISATIE VOOR TOEGEPAST …, published 2008).

The target of the assay is wild-type pro-urokinase (natural activation site Pro-Arg-Phe-Lys-Ile-Ile-Gly-Gly) (human, UniProt P00749 21-431). The assay is described as follows: cell-based or functional assay.

B1: purified recombinant MASP-2 (active form) (enzyme, UniProt O00187 16-686, looked up)
chain: TPLGPKWPEPVFGRLASPGFPGEYANDQERRWTLTAPPGYRLRLYFTHFDLELSHLCEYDFVKLSSGAKVLATLCGQESTDTERAPGKDTFYSLGSSLDITFRSDYSNEKPFTGFEAFYAAEDIDECQVAPGEAPTCDHHCHNHLGGFYCSCRAGYVLHRNKRTCSALCSGQVFTQRSGELSSPEYPRPYPKLSSCTYSISLEEGFSVILDFVESFDVETHPETLCPYDFLKIQTDREEHGPFCGKTLPHRIETKSNTVTITFVTDESGDHTGWKIHYTSTAQPCPYPMAPPNGHVSPVQAKYILKDSFSIFCETGYELLQGHLPLKSFTAVCQKDGSWDRPMPACSIVDCGPPDDLPSGRVEYITGPGVTTYKAVIQYSCEETFYTMKVNDGKYVCEADGFWTSSKGEKSLPVCEPVCGLSARTTGGRIYGGQKAKPGDFPWQVLILGGTTAAGALLYDNWVLTAAHAVYEQKHDASALDIRMGTLKRLSPHYTQAWSEAVFIHEGYTHDAGFDNDIALIKLNNKVVINSNITPICLPRKEAESFMRTDDIGTASGWGLTQRGFLARNLMYVDIPIVDHQKCTAAYEKPPYPRGSVTANMLCAGLESGGKDSCRGDSGGALVFLDSETERWFVGGIVSWGSMNCGEAGQYGVYTKVINYIPWIENIISDF
Consider B1, for which the “absorbance change at 405 nm (activation of pro-urokinase, read with pyro-Glu-Gly-Arg-pNA)” value is around 2 fold.
